According to article PMC10325899:
pKd: −log10 of the molar value.

Target: fluorescein labeled GST-PKM1 (UniProt P14618)
Experiment: MST; 40 nM fluorescein-labelled PKM1 with salt-washed ribosomes titrated from 0 to about 1.5 μM in PBS + 5 mM MgCl2, room temperature; three batches of ribosomes fitted globally to a 1:1 model; binding not fully saturated

Sequence of UniProt P14618 (P14618 other isoform, or with tags, fused parts or gaps): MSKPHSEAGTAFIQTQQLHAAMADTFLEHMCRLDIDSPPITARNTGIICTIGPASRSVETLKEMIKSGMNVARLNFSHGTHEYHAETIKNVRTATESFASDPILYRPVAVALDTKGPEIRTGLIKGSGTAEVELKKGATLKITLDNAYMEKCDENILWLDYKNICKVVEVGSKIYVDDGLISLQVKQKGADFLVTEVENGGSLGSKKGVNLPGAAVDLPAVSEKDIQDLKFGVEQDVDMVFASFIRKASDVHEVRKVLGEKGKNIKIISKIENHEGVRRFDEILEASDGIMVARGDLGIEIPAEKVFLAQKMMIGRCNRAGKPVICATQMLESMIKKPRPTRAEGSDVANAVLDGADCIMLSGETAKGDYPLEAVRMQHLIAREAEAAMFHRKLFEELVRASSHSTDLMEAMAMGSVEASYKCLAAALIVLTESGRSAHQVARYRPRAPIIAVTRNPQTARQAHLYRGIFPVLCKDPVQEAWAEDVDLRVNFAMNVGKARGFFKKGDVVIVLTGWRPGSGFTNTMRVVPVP

pKd: 6.05
Substance: salt-washed ribosomes isolated from HEK293F cells (from UniProt P36578 1-427) (complex)
